# According to patent US20060121510:
# Test system: calmodulin (3′,5′-cyclic nucleotide phosphodiesterase activator, Sigma)
substance,measurement,value
"3′,5′-cyclic nucleotide phosphodiesterase (activator deficient from bovine brain, Sigma)","hydrolysis of 3′,5′-cyclic AMP to 5′-AMP during a 40 min preincubation (enzyme activity)",more than 90% is destroyed in a similar reaction containing calmodulin
